According to US5783663A, “Peptide ligands for affinity purification of fibrinogen” (Bayer Corporation, priority 1998, dated 1998):
No end group written: not given here.

Columns and labels:
Human fibrinogen [1] = biological target: T1, Human fibrinogen (Homo sapiens, UniProt P02671+P02675+P02679); test: Fibrinogen binding to peptide resin columns (affinity chromatography, UV 280 nm)
T1 construct: purchased Enzymes Research Labs (South Bend, Ind.)
T1 sequence (P02671 20-629 limits assumed): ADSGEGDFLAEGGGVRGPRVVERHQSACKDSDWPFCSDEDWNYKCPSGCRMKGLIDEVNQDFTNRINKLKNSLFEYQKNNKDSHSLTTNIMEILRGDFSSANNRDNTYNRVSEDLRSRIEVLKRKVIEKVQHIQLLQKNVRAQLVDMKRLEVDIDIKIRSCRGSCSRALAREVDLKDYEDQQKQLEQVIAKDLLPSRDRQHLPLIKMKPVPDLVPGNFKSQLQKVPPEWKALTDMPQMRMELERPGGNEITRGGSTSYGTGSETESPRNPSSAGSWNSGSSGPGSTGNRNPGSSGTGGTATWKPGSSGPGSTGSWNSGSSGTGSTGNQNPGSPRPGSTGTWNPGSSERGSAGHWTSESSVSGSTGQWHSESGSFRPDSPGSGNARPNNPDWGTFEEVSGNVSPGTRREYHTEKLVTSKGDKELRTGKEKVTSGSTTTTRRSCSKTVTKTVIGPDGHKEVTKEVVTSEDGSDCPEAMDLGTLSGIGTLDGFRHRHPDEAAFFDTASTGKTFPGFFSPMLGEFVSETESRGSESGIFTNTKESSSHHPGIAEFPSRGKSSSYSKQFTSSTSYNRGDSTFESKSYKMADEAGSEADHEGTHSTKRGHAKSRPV
T1 sequence (P02675 31-491): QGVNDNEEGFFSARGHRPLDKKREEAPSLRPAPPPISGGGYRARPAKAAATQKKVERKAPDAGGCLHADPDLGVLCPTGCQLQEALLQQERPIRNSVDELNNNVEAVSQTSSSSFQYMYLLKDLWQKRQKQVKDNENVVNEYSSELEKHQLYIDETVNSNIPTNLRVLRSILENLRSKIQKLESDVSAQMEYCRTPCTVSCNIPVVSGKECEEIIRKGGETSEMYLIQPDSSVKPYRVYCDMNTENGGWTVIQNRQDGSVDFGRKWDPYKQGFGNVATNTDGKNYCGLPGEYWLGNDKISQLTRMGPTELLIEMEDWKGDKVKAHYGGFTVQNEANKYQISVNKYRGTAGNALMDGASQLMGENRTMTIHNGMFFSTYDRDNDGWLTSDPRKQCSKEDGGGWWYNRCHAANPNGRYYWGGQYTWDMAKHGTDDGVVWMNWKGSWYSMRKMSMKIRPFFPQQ
T1 sequence (P02679 27-437 isoform P02679-2 limits assumed): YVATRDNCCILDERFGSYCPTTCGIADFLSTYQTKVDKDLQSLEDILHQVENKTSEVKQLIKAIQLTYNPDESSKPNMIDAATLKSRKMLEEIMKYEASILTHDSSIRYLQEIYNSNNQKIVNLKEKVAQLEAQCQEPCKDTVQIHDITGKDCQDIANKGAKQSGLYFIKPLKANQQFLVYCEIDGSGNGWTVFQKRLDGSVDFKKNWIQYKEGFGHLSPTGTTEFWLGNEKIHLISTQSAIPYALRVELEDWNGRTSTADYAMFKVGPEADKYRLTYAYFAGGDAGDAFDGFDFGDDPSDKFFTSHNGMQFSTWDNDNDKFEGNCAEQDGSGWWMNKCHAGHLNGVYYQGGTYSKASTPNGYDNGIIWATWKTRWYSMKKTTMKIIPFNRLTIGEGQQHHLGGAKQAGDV
Experimental: (§1) Dried peptide resins were packed into 0.6 ml columns (0.4 cm×5 cm, Thomson, Va.), and evaluated on a Waters HPLC-system (Milford, Mass.) with a UV-detector (Knauer, Germany) monitoring at 280 nm. The columns were conditioned with over 5 volumes of 20% ethanol in water, followed by a minimum of 5 volumes of water.
(§2) Human fibrinogen was purchased from Enzymes Research Labs (South Bend, Ind.), and 25% human serum albumin (HSA) was a donation from the Bayer Corporation (Clayton, N.C.). The following buffers were used for both dissolving fibrinogen and diluting HSA.
Peptide resin columns were equilibrated in Buffer A. The following program was used for each column run: From time 0-15 minutes, Buffer A was applied. At time 10 minutes, a 50 μl sample was injected onto the column with a 50 μl sample loop. From time 15-20 minutes, bound protein was step-eluted by switching to 0.4M acetic acid (Fisher), pH 2.6. The column was then re-equilibrated with Buffer A from time 20-30 minutes. A flow rate of 1 ml/min was used. For each column two injections were made: #1 Buffer A (blank); #2 10 μg/μl Fibrinogen dissolved in Buffer A.
(§3) This column was equilibrated in Buffer A, and the following program was used for each column run: From time 0-15 minutes, Buffer A was applied. At time 5 minutes, a 50 μl sample dissolved in buffer A was injected onto the column with a 100 μl sample loop. From time 15-20 minutes, bound protein was step-eluted by switching to 0.1M acetic acid, pH 2.9, followed by 0.4M acetic acid, pH 2.6, from time 20-21 minutes. The column was then re-equilibrated with Buffer A from time 21-30 minutes. During the column run, the flow rate was 1 ml/min from time 0-21 minutes; it was increased to 2 ml/min from time 21-30 minutes.
(§4) In total, seven injections were made: #1 Buffer A (blank); #2 100 μg/μl HSA; #3 20 μg/μl Fibrinogen; #4 Mixture of 5 μg/μl Fibrinogen and 90 μg/μl HSA; #5 Mixture of 10 μg/μl Fibrinogen and 75 μg/μl HSA; #6 Mixture of 20 μg/μl Fibrinogen and 50 μg/μl HSA; #7 20 μg/μl Fibrinogen.
(§5) After equilibrating in Buffer B, the following program was used for each column run: From time 0-15 minutes, Buffer B was applied. At time 5 minutes, 50 μL sample dissolved in Buffer B was injected onto the column with a 100 μl sample loop. From time 15-20 minutes, bound protein was step-eluted by switching to 20 mM acetic acid, pH 3.2, followed by 0.4M acetic acid, pH 2.6, from time 20-23 minutes. The column was then re-equilibrated with Buffer B from time 23-30 minutes. During the column run, the flow rate was 1 ml/min from time 0-23 minutes, then it was increased to 2 ml/min from time 23-30 minutes. In total, for each column seven injections were made: #1 Buffer B (blank); #2 for WQEHYN-column: 50 μg/μl HSA, and for YENYGY-column: 100 μg/μl HSA; #3 20 μg/μl Fibrinogen; #4 Mixture of 5 μg/μl Fibrinogen and […] HSA; #5 Mixture of 10 μg/μl Fibrinogen and 50 μg/μl HSA; #6 Mixture of 20 μg/μl Fibrinogen and 50 μg/μl HSA; #7 20 μg/μl Fibrinogen.

[2] = biological target: T2, human serum albumin (HSA) (Homo sapiens, UniProt P02768); test: HSA binding to peptide resin columns (affinity chromatography); details: conditions of the experimental section, FIGS. 3-5
T2 construct: purchased Bayer Corporation (Clayton, N.C.), donated rather than bought
Experimental: as §1, §2
This column was equilibrated in Buffer A, and the following program was used for each column run: From time 0-15 minutes, Buffer A was applied. At time 5 minutes, a 50 μl sample dissolved in buffer A was injected onto the column with a 100 μl sample loop. From time 15-20 minutes, bound protein was step-eluted by switching to 0.1M acetic acid, pH 2.9, followed by 0.4M acetic acid, pH 2.6, from time 20-21 minutes. The column was then re-equilibrated with Buffer A from time 21-30 minutes. During the column run, the flow rate was 1 ml/min from time 0-21 minutes; it was increased to 2 ml/min from time 21-30 minutes. […]

Human fibrinogen [3] = biological target: T1, Human fibrinogen; test: Fibrinogen recovery from peptide columns (acetic acid elution, A280 of eluted peak); format: binding
Experimental: as §1, §2, §3, §4, §5
In parts (b) and (c), eluted protein was collected in 1.25 ml fractions, some in which pH was measured. The fractions were not re-adjusted to a neutral pH. The purity of the eluted protein was assessed by SDS-PAGE (Biorad) of non-reduced as well as of reduced samples. Broad Range Standards (Biorad) were used as molecular weight standards, and dithiothreitol (Sigma) was used as the reducing agent. Eluted protein was centrifuged and supernatant collected for determination of fibrinogen concentration by A280.

[4] = conditions of the experimental section, FIGS. 3-5
[5] = Column run #3, injected 1000 μg fibrinogen (20 μg/μl fibrinogen alone)
[6] = Column run #4, injected 250 μg fibrinogen (5 μg/μl, mixture with HSA)
[7] = Column run #5, injected 500 μg fibrinogen (10 μg/μl, mixture with HSA)
[8] = Column run #6, injected 1000 μg fibrinogen (20 μg/μl, mixture with 50 μg/μl HSA)
[9] = Column run #7, injected 1000 μg fibrinogen (20 μg/μl fibrinogen alone)

## Trp-Gln-Glu-His-Tyr-Asn (WQEHYN; not fully specified (C-terminus); printed as Trp-Gln-Glu-His-Tyr-Asn) [hexapeptide ligand synthesized onto TOTDA-modified Toyopearl resin]
Human fibrinogen [1]; [4]
  fibrinogen binding to peptide column: bound fibrinogen
[2]
  HSA binding to peptide column: none of these peptides bound HSA
Human fibrinogen [3]; [5]
  Fibrinogen recovery, column peak: 330 µg
Human fibrinogen [3]; [6]
  Fibrinogen recovery, column peak: 70 µg
Human fibrinogen [3]; [7]
  Fibrinogen recovery, column peak: 140 µg
Human fibrinogen [3]; [8]
  Fibrinogen recovery, column peak: 220 µg
Human fibrinogen [3]; [9]
  Fibrinogen recovery, column peak: 240 µg

## Trp-Gln-Glu-Thr-Tyr-Gln (WQETYQ; not fully specified (C-terminus); printed as Trp-Gln-Glu-Thr-Tyr-Gln) [hexapeptide ligand synthesized onto TOTDA-modified Toyopearl resin]
Human fibrinogen [1]; [4]
  fibrinogen binding to peptide column: bound fibrinogen
[2]
  HSA binding to peptide column: none of these peptides bound HSA
Human fibrinogen [3]; [5]
  Fibrinogen recovery, column peak: 360 µg
Human fibrinogen [3]; [6]
  Fibrinogen recovery, column peak: 100 µg
Human fibrinogen [3]; [7]
  Fibrinogen recovery, column peak: 150 µg
Human fibrinogen [3]; [8]
  Fibrinogen recovery, column peak: 310 µg
Human fibrinogen [3]; [9]
  Fibrinogen recovery, column peak: 340 µg

## Tyr-Glu-Asn-Tyr-Gly-Tyr (YENYGY; not fully specified (C-terminus); printed as Tyr-Glu-Asn-Tyr-Gly-Tyr) [hexapeptide ligand synthesized onto TOTDA-modified Toyopearl resin]
Human fibrinogen [1]; [4]
  fibrinogen binding to peptide column: bound fibrinogen
Human fibrinogen [3]; [5]
  Fibrinogen recovery, column peak: 530 µg
Human fibrinogen [3]; [6]
  Fibrinogen recovery, column peak: 150 µg
Human fibrinogen [3]; [7]
  Fibrinogen recovery, column peak: 280 µg
Human fibrinogen [3]; [8]
  Fibrinogen recovery, column peak: 520 µg
Human fibrinogen [3]; [9]
  Fibrinogen recovery, column peak: 530 µg

## W-E-Q-(S)-N-P (WEQSNP)
Human fibrinogen [1]; Buffer A (preliminary test / later tests)
  fibrinogen binding to peptide column: did not bind fibrinogen
Human fibrinogen [1]; Buffer B
  fibrinogen binding to peptide column: did not bind fibrinogen
